Stoichiometry N data for five substances are collected here from PMC8531759.

Holding throughout (assay): SEC; Sephacryl S-400R in buffer C (20 mM Na-phosphate pH 7.4, 100 mM NaCl, 0.05% dodecyl beta-maltoside); absorbance at 280 nm; apparent molecular weight by comparison to globular protein standards; self-association, hexamer
Background: In gel filtration, larger molecules generally elute earlier.

Experiment [1] deals with AbSGR-h D62N mutant (Anaerolineae bacterium SM23_63).
Experiment [2] has as its target Anaerolineae bacterium SM23_63 SGR homolog (AbSGR-h), wild-type (Anaerolineae bacterium SM23_63).
The target of experiment [3] is AbSGR-h T36A mutant (Anaerolineae bacterium SM23_63).
Experiment [4] addresses AbSGR-h D34N mutant (Anaerolineae bacterium SM23_63).
The target of experiment [5] is AbSGR-h H32A mutant (Anaerolineae bacterium SM23_63).

Consider AbSGR-h D62N mutant (enzyme), for which the stoichiometry N in experiment [1] was determined as 6.
With “Anaerolineae bacterium SM23_63 SGR homolog (AbSGR-h), wild-type (enzyme)”, the stoichiometry N in experiment [2] is 6.
Turning to AbSGR-h T36A mutant (enzyme), in experiment [3], the stoichiometry N came to 6.
In the case of AbSGR-h D34N mutant (enzyme), in experiment [4], the stoichiometry N stood at 6.
Regarding AbSGR-h H32A mutant (enzyme), the stoichiometry N in experiment [5] stood at 6.

What is called stoichiometry N is a count of units in the complex or per binding partner.
